Measured values reported in patent US20180092961.

Assays:
[1] = molecular target: murine histone H4 released from activated RAW264.7 macrophages (UniProt P62806)
[2] = molecular target: calf thymus histone H4 (Roche) (UniProt P62803)
[3] = molecular target: calf thymus histone H3 (Roche) (UniProt P68432)
murine histone H3 = murine histone H3 (UniProt P68433)
[4] = system: murine histone H2A released from activated RAW264.7 macrophages

## human recombinant activated protein C (Xigris)
[1]
  cleavage, Western blot of conditioned medium: histone H4 was released into the conditioned medium and was cleaved by APC
  new protein bands in conditioned medium in the presence of APC, Edman sequencing: N-terminal sequence of the 10 kD band protein which matches the murine histone H4 internal sequence (Val21-Ile34)
[2]
  cleavage in a purified system, SDS-PAGE: APC cleaved histone H3 and H4 in a dose dependent fashion
  cleavage, SDS-PAGE: Purified histone H4 was also cleaved by APC and a cluster of 4-7 KD fragments could be found on SDS-PAGE
[3]
  cleavage in a purified system, SDS-PAGE: APC cleaved histone H3 and H4 in a dose dependent fashion
Murine histone H3
  new protein bands in conditioned medium in the presence of APC, Edman sequencing: The N-terminal sequence of the 13 kD band protein was KSAPATGGV (SEQ ID NO:15) which matches the murine histone H3 internal sequence (Lys27-Lys36)
[4]
  new protein bands in conditioned medium in the presence of APC, MS/MS after tryptic digestion: three peptide sequences ... in this protein band that matchs the murine histone H2A protein sequence (amino acids 21-29, 82-88 and 100-118)
